# Test results taken from PMC4730555.
# Assays:
# [1] = molecular target: ectodomain of RGMB (eRGMB), wild type (human) (UniProt Q6NW40); assay: multiangle light scattering
# [2] = molecular target: ectodomain of RGMB (eRGMB), wild type (human) (UniProt Q6NW40); assay: AUC
# [3] = molecular target: ectodomain of RGMB (eRGMB), wild type (human) (UniProt Q6NW40); assay: AUC; remark: listed apart in the source
# [4] = molecular target: eRGMB-P206N (human) (UniProt Q6NW40); assay: AUC
# [5] = molecular target: ectodomain of RGMB (eRGMB), wild type (human) (UniProt Q6NW40); assay: SPR
# [6] = molecular target: RGMA, full-length ectodomain (human) (UniProt Q96B86); assay: SPR
# [7] = molecular target: RGMC, full-length ectodomain (human) (UniProt Q6ZVN8); assay: SPR
# Sequence of UniProt Q6ZVN8 (Q6ZVN8 36-400): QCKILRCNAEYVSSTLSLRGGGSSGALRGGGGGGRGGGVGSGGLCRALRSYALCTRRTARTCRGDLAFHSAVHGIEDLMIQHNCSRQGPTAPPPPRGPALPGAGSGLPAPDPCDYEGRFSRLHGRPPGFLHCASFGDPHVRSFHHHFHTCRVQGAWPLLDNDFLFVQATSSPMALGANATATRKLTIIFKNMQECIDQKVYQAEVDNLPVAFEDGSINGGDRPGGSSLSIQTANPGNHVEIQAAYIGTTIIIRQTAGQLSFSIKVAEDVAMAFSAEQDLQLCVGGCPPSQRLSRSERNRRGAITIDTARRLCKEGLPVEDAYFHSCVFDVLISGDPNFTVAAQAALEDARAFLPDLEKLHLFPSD
# Sequence of UniProt Q96B86 (Q96B86 48-424): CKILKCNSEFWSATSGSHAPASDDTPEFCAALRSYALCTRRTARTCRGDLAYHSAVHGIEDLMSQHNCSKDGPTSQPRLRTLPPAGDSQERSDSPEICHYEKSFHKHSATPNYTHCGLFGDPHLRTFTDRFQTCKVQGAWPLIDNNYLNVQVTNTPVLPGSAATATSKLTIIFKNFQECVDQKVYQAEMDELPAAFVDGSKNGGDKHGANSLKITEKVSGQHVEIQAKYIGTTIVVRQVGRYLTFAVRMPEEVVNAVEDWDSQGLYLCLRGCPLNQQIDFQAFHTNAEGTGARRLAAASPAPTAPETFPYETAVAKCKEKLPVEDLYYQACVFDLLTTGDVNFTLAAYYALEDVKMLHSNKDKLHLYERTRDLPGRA
stoichiometry N [1],stoichiometry N [2],stoichiometry N [3],stoichiometry N [4],interaction relative to the equivalent NEO1 construct [5] [fold],interaction relative to the equivalent NEO1 construct [6] [fold],interaction relative to the equivalent NEO1 construct [7] [fold],Substance
1,1,1,1,–,–,–,NEO1_FN56M (from UniProt P97798 883-1136) (domain or fragment)
–,–,–,–,0.001,0.001,0.001,full-length DCC ectodomain (from UniProt P43146 26-1097) (domain or fragment)
